Results as given in PMC2809015.

How the values were obtained:
[1] = biological target: HscB, co-chaperone of HscA (E. coli) (UniProt P0A6L9)
[2] = biological target: IscA, FeS cluster assembly scaffold protein (E. coli) (UniProt P0AAC8)
[3] = biological target: IscU, FeS cluster assembly scaffold protein (E. coli) (UniProt P0ACD4)
IscU (Escherichia coli) = IscU (Escherichia coli) (UniProt P0ACD4); experiment: surface plasmon resonance; conditions: cited from earlier work
Chain of IscU (Escherichia coli) (P0ACD4 whole entry): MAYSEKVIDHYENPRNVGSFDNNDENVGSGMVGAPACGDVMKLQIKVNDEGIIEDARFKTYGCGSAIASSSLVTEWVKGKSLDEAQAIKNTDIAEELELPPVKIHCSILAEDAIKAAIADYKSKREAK

Chain of IscA, FeS cluster assembly scaffold protein (E. coli) (P0AAC8 whole entry): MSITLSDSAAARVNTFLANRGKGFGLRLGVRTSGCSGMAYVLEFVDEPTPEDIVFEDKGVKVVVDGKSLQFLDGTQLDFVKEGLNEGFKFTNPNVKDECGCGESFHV
Chain of HscB, co-chaperone of HscA (E. coli) (P0A6L9 whole entry): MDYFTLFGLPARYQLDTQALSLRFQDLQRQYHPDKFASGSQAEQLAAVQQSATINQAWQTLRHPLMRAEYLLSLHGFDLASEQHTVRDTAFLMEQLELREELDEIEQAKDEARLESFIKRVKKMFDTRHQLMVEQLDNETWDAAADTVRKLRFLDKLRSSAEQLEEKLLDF
Chain of Biotin synthase (BioB), cluster state not stated for the experiment (P12996 whole entry): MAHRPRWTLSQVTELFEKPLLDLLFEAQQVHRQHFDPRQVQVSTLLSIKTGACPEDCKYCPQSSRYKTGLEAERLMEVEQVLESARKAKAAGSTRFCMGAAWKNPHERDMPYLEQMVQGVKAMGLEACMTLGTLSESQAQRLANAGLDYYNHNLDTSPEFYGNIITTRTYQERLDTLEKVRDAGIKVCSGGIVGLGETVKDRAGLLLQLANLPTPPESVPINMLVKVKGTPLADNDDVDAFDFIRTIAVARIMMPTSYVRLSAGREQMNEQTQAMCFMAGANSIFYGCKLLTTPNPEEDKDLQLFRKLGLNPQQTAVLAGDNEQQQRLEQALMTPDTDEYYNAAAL
Chain of IscU, FeS cluster assembly scaffold protein (E. coli) (P0ACD4 whole entry): as the sequence (P0ACD4 whole entry) above
Chain of HscA (P0A6Z1 whole entry): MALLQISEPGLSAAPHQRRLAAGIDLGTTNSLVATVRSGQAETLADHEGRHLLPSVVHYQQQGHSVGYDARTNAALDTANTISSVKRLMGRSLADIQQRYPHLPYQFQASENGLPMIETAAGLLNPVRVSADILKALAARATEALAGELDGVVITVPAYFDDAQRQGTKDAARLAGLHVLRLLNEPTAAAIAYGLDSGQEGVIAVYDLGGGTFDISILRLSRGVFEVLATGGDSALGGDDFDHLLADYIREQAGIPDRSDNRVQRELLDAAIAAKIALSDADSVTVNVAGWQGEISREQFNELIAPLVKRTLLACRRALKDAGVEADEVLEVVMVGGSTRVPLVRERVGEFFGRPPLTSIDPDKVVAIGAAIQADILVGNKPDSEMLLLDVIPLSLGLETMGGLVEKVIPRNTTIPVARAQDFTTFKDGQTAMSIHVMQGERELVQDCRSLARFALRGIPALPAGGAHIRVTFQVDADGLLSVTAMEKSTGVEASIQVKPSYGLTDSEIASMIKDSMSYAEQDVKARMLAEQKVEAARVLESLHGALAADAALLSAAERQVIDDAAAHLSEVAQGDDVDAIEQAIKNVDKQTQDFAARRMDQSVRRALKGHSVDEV

| Substance | Kd [1] [µM] | Kd [2] [µM] | Kd [3] [µM] | Kd (IscU (Escherichia coli)) [µM] |
| --- | --- | --- | --- | --- |
| Biotin synthase (BioB), cluster state not stated for the experiment (from UniProt P12996 1-346) (enzyme) | > 10 | > 10 | > 10 | – |
| HscA (from UniProt P0A6Z1) | – | – | – | 9.3 |
